± gives the uncertainty stated by the source.
assay: protein stability index of a GFP-peptide fusion (yeast GPS) (PSI 1-4); higher = more stable; sorted into four equal gates, so the index is relative within each strain; settings: san1∆
How it was run: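 Plasmids isolated from each sorting gate were PCR-amplified and Illumina-sequenced, and barcodes assigned the reads to strains. The gates, four of equal size, were set by GFP/Cherry fluorescence ratio on mid-log cultures in leucine-free medium. These cultures were yeast carrying a pooled library of tiled 17-residue yeast protein peptides fused downstream of GFP on a plasmid that also expresses Cherry. The protein stability index is the sum of every gate's read frequency times its gate number.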

| Sequence | protein stability index |
| --- | --- |
| MNNQPQGTNSVPNSIGN [SNF5] | 3.04 ± 0.12 |
| MPNIELYLKVIPMDFIR [SSN2] | 1.95 ± 0.082 |
| MPSRFTKTRKHRGHVSA [RPL28] | 2.09 ± 0.12 |
| MQKPVPFVPVLDRRFEI [FAS1] | 1.82 ± 0.043 |
| MQKQHEMKTQAAELQEK [SNF6] | 3.05 ± 0.055 |
| MQQAQFQAQQAQQAQQA [SNF2] | 2.62 ± 0.032 |
| MRDKSFGRTLASVTKEI [RPL12A] | 2.87 ± 0.13 |
| MRFNIEIIADWIWDMNV [BRR2] | 2.7 ± 0.088 |
| MSAPQAKILSQAPTELE [RPS7A] | 2.41 ± 0.1 |
| MSDSIISFAAFILADAG [RPP1B] | 1.31 ± 0.2 |
| MSDVEEVVEVQEETVVE [RPS12] | 2.89 ± 0.084 |
| MSGILHCEDKDYKTAFS [RPN6] | 2.51 ± 0.072 |
| MSGSLSRGNGGKKVLNK [POP1] | 1.32 ± 0.22 |
| MSLINDAMVTRTPVIIS [SMD2] | 1.47 ± 0.12 |
| MSNDPGNEVSSLYPPPP [MED7] | 2.69 ± 0.082 |
| MSNTLFDDIFQVSEVDP [RPB8] | 2.85 ± 0.1 |
| MSRSLANGIINVKEITE [SMC3] | 2.77 ± 0.12 |
| MSVDIDKKASMIISGSR [ASC1] | 1.71 ± 0.23 |
| MSVEPVVVIDGKGHLVG [RPL16A] | 2.63 ± 0.11 |
| MSVSDNDQALIKVLLRQ [RET1] | 2.71 ± 0.067 |
| MTAAVTSSNIVLETHES [RPT6] | 2.79 ± 0.081 |
| MTAQQAPKWYPSEDVAA [RPL6B] | 1.84 ± 0.091 |
| MTEDIEQKKTATEVTPQ [RPC19] | 3.1 ± 0.098 |
| MTLLTDSLRKLYVDSES [MTW1] | 1.65 ± 0.11 |
| MTVTFLILAGQVKVKGQ [YCS4] | 2.3 ± 0.086 |
| MVAATKRRKTHIHKHVK [RET1] | 2.31 ± 0.2 |

| Sequence | protein stability index |
| --- | --- |
| MVALISKKRKLVADGVF [RPS3] | 1.53 ± 0.13 |
| MVCETDVPSEDDPTQLV [RPO21] | 3.37 ± 0.1 |
| MVMREETIKSLEDPYKY [CSN9] | 1.25 ± 0.2 |
| MVSTPELKKYMDKKILL [SMX2] | 3.26 ± 0.092 |
| MYCRPAPSDFSENQRQI [GRR1] | 3.02 ± 0.078 |
| NAASQQPTPRSASNTAK [GAL11] | 2.78 ± 0.049 |
| NAEVVAGNIKCRNDAVN [BRR2] | 3.05 ± 0.087 |
| NAIFLSSEQDYSTLKEL [YCG1] | 2.18 ± 0.18 |
| NANTIETAKMIENMTKE [FAS2] | 2.97 ± 0.065 |
| NAPAWFKLSSESVIEQI [RPS13] | 2.34 ± 0.13 |
| NAPTFNPKYDTSNASMN [YAR002W/NUP60] | 2.9 ± 0.036 |
| NCNIKDFKPPYIYSHVN [SWP82] | 2.45 ± 0.11 |
| NDDFSEVFEFKTFNKIQ [BRR2] | 2.24 ± 0.083 |
| NDDIEWMLSICVEWRLP [YJR042W/NUP85] | 1.83 ± 0.11 |
| NDEVNEDEEDDNISSFH [YCG1] | 3.31 ± 0.074 |
| NDILDELLCGMANKEWR [ECM29] | 2.72 ± 0.15 |
| NDLDYDLIADTITNSSS [YML103C/NUP188] | 2.99 ± 0.036 |
| NDNYSSDMENDNLLLNL [REC8] | 2.82 ± 0.1 |
| NDRNPRLNENKKIGCYM [CSN12] | 3.12 ± 0.051 |
| NDTSSGTNAMLPSPESL [SNF5] | 2.74 ± 0.035 |
| NEESTNERLEINQEKPV [SIR4] | 3.37 ± 0.092 |
| NEFQLQWGKYQTFGVDI [SWI1] | 3.09 ± 0.067 |
| NEKIEKRSDLTGANSIY [UBP6] | 3.06 ± 0.075 |
| NEKSQAEQEKAKNIISN [LRP1] | 2.86 ± 0.078 |
| NELERNRKIYQFTLYDR [SMC3] | 2.31 ± 0.14 |
| NELPDIEALYDDDTFSD [RPN2] | 3.23 ± 0.12 |

From the supplement of paper PMC9732359
